Values of other authors, collected in publication PMC12728182.

Assays:
WASP (Homo sapiens) = WASP (Homo sapiens) (UniProt P42768)
ACK (Homo sapiens) = ACK (Homo sapiens) (UniProt Q07912)
PAK1 (Homo sapiens) = PAK1 (Homo sapiens) (UniProt Q13153)
Chain of PAK1 (Homo sapiens) (Q13153 2-545): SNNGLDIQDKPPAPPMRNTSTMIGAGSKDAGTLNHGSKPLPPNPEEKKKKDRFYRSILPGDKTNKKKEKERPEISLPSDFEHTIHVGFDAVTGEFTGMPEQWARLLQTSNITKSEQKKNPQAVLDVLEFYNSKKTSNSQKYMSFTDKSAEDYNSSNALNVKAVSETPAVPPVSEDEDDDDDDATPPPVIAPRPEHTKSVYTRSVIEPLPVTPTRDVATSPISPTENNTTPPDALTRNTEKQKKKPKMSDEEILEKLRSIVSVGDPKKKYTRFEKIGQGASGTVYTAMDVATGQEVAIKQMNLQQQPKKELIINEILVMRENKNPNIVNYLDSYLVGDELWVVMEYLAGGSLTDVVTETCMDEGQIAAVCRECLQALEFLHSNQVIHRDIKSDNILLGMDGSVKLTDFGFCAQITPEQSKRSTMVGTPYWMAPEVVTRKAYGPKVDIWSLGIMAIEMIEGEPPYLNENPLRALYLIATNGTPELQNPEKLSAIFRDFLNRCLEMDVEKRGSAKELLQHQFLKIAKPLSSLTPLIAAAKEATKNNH

Chain of Cdc42 (P60953 1-188): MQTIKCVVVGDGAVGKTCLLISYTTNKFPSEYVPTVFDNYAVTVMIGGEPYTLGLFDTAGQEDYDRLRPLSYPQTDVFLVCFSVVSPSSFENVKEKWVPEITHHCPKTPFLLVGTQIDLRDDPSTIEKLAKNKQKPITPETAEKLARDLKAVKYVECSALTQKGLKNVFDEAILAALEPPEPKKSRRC
Chain of ACK (Homo sapiens) (Q07912 whole entry): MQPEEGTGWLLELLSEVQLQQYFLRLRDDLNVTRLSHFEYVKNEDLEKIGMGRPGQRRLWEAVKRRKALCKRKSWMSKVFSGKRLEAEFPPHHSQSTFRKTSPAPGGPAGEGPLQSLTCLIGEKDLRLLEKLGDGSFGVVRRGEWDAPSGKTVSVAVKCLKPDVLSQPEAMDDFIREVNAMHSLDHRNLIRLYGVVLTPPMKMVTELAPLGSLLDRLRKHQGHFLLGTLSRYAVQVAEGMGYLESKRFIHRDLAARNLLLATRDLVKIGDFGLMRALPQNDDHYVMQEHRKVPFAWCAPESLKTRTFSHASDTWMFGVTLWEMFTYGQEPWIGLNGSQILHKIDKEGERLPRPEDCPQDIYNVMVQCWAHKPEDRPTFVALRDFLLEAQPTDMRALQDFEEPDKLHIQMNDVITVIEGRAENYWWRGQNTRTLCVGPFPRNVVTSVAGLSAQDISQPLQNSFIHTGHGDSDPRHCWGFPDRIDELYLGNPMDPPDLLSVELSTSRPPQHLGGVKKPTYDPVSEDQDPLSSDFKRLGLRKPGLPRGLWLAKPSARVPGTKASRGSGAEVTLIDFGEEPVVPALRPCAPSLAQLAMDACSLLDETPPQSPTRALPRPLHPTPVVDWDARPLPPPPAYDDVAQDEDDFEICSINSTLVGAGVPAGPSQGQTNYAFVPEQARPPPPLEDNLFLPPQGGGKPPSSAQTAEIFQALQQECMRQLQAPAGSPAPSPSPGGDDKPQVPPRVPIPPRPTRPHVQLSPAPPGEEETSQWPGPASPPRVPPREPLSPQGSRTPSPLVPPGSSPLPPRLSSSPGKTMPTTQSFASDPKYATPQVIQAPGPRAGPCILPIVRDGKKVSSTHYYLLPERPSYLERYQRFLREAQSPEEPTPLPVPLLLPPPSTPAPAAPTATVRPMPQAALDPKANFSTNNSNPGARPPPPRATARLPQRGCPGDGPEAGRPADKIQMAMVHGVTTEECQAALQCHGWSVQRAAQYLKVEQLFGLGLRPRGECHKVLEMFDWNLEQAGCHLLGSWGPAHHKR
Chain of WASP (Homo sapiens) (P42768 2-502): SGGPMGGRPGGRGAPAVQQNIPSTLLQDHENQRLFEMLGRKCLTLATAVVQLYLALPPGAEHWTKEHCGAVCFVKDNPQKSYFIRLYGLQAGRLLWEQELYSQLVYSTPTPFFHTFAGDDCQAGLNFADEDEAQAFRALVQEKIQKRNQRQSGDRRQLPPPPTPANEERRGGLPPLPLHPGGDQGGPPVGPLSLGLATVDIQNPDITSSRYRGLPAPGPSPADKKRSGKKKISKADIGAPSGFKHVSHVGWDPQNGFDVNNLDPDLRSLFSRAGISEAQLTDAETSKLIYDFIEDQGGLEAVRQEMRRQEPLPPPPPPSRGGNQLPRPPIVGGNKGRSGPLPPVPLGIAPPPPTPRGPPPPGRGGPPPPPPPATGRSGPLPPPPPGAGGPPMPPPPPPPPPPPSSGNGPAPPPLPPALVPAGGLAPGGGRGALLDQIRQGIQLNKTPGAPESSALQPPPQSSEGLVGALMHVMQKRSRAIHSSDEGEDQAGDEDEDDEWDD

Cdc42 (from UniProt P60953)
Kd (WASP (Homo sapiens)): 55 nM | Kd (ACK (Homo sapiens)): 770 nM | Kd (PAK1 (Homo sapiens)): 620 nM
